The assay deals with T1, Hexokinase II (HK-II), purified (UniProt P52789 1-917, fluorescently labeled using the NanoTemper protein-labeling Kit BLUE).
T1 construct: hexokinase II (HK-II)
T1 sequence (looked up): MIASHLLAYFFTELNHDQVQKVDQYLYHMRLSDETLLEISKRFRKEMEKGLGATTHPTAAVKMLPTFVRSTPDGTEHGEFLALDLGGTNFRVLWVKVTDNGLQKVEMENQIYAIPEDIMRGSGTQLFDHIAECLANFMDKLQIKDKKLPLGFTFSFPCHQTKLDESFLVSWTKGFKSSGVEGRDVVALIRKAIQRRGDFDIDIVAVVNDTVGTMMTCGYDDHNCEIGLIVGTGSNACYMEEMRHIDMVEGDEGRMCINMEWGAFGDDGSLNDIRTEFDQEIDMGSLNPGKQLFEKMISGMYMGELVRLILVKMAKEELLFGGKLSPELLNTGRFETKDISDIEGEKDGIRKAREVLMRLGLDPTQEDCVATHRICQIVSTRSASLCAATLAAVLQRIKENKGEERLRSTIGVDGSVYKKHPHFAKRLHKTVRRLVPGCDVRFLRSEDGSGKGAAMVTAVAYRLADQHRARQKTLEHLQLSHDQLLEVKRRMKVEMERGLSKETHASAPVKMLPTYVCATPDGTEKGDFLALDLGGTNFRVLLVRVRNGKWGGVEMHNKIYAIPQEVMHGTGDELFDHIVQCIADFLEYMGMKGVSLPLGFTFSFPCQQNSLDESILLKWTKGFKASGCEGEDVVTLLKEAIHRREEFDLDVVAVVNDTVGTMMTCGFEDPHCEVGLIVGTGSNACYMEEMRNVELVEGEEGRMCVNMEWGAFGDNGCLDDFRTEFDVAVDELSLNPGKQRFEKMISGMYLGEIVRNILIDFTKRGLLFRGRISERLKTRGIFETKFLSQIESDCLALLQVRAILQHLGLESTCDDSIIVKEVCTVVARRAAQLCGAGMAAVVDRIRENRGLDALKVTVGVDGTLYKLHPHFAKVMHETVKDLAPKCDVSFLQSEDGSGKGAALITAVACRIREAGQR
Briefly: MST; HK-II (100 nM), fluorescently labelled (NanoTemper Kit BLUE), incubated with Tf-D-LP4 (1-100 μM) for 20 min; MST-grade glass capillaries, Monolith-NT115. The note with it: both partners purified.

Non-standard residues stand in square brackets, D forms with d. No end group written: not given here.

B1: Tf-D-LP4 (peptide)
peptide: HAIYPRHSWTWE[dK][dK][dL][dE][dT][dA][dV][dN][dL][dA][dW][dT][dA]G[dN][dS][dN]KWTWK
notes: L-amino acids; amino acids added to form a loop-shaped tryptophan zipper (N-terminal half); amino acids added to form a loop-shaped tryptophan zipper (C-terminal half); 34 residues in all; the VDAC1-derived stretch is made of D-amino acids, the rest of L-amino acids; also called VDAC1-based peptide; Tf-D-LP4 peptide; source: synthetic peptide (GL Biochem, Shanghai, >95% purity), dissolved in DMSO
In turn, B1 returned a Kd of 16.6 µM.

The values above are taken from publication PMC5458211, “Mitochondrial VDAC1-based peptides: Attacking oncogenic properties in glioblastoma” (Oncotarget, 2017).
